These are literature values, as cited in patent publication EP0314042A2, “Novel copolymers and superoxide dismutase modified with said copolymers” (KURARAY CO., LTD., priority 1987, dated 1989).

For series [1] the following is noted: as compared with SOD; cited from earlier work.
The conditions of series [2]: result in words, relative to SOD; cited from earlier work.

On to “Ficoll-modified SOD: SOD converted to a giant molecule through modification with Ficoll”, for which, in series [1], the “enzymatic activity of SOD” value is “markedly decreased”.

In the case of “inulin-modified SOD: SOD modified with inulin (Japanese Kokai Tokkyo Koho No. 58-32826)”, in series [2], the plasma half-life entry is listed as “much prolonged”. In addition, in series [1], the “enzymatic activity of SOD” value is “reduced”.

For “polyethylene glycol-modified-SOD: SOD converted to a giant molecule through modification with polyethylene glycol”, in series [1], the “enzymatic activity of SOD” value is given as “markedly decreased”.
